Laboratory results taken from patent US6451982 (SCHERING, dated 2002).
Changes are numbered by the printed parent chain.

T1: recombinant human interleukin-5 (human, UniProt P05113 20-134)
T1 sequence (looked up): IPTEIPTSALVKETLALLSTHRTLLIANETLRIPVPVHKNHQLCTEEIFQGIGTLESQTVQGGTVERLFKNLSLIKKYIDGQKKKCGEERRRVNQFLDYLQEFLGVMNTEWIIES

B1: humanized antibody CMX5-2 (antibody, V domains shown)
VH: QVKLVQAGGGVVQPGRSLRLSCIASGFTFSSNSVNWIRQAPGKGLEWVALIWSNGDTDYNSAIKSRFTISRDNSKSTLYMQMNSLRTEDTAVYFCAREYYGYFDYWGQGVLVTVSS
VL: DIQMTQSPSSLSVSVGDRVTITCLASEGISSYLAWYQQKPGLAPKLLIYGANSLQTGVPSRFSGSGSATDFTLTISSLQPEDIATYYCQQSYKFPNTFGQGTKVDVKR
B2: humanized antibody CMX5-3 (antibody, V domains shown)
VH: EVQLLESGGGLVQPGGSLRLSCAVSGLSLTSNSVNWIRQAPGKGLEWVALIWSNGDTDYNSAIKSRFTISRNDSKNTLYLQMNGLQAEVSAIYFCAREYYGYFDYWGQGTLVTVSS
VL: B1 VL
notes: VH LAY maximal, VL LAY maximal
B3: humanized antibody CMX5-4 (antibody, V domains shown)
VH: QVKLVQAGGGVVQPGRSLRLSCIASGLSLTSNGMHWVRQAPGKGLEWVAVIWSNGSRTYYGDSVKGRFTISRDNSKRTLYMQMNSLRTEDTAVYYCAREYYGYFDYWGQGVLVTVSS
VL: B1 VL with L24Q, A34N, S53T, L54R, Q55E, T56A, A68G
notes: VH HIL minimal, VL LAY minimal
B4: humanized antibody CMX5-5 (antibody, V domains shown)
VH: B1 VH with I37V, S76R, F94Y
VL: B1 VL with A68G, L73F
notes: Kabat CDRs only on HIL VH and LAY VL
B5: humanized antibody CMX5-1 (antibody, V domains shown)
VH: B1 VH with A24V, F27L, T28S, F29L, S30T
VL: B1 VL with K45L
notes: VH HIL maximal, VL LAY maximal; also called CMX1; antibody from clone CJA25

What was measured:
[1] = molecular target: T1, recombinant human interleukin-5; assay: competition ELISA on plates coated with human IL-5; competitor biotinylated JES1-39D10
Experimental: Competition assays were carried out in which binding of the biotinylated antibody to plates coated with human IL-5 was measured in the presence of unlabelled antibody JES1-39D10 or antibody CMx5-1, CMX5-2 or CMX5-5, each of which had been purified by protein A/G affinity chromatography.
EIA plates were treated with 0.1 M NaHCO_3, pH 9.2, for 1 hour at room temperature. Human IL-5 in TBS was then added at […]. The plates were incubated overnight at 4° C. and then blocked with 3% BSA-TBS ml for 1 hour at room temperature. Fifty microliters of 2-fold serially diluted competing antibodies plus the appropriate amount of biotinylated antibody JES1-39D10 (also in a 50 μl volume) were added to each well, and the plates were incubated for 1 hour at room temperature.
The plates were then washed 5 times with TBS-Tween-20, incubated with 1 μg/ml horseradish peroxidase (HRP)-streptavidin conjugate for 1 hour at room temperature, washed 5 times with TBS-Tween-20, and developed with HRP substrate TMB. Absorbance of the samples was then measured spectrophotometrically at 450 nm.

[2] = molecular target: T1, recombinant human interleukin-5; assay: inhibition of binding of 0.5 nM radiolabeled human IL-5 to IL-5 receptor alpha chains on transfected COS cells
[3] = molecular target: T1, recombinant human interleukin-5; assay: cell-based or functional assay
[4] = molecular target: T1, recombinant human interleukin-5; assay: captured antibody on plate, 125I-IL-5 binding, Scatchard analysis
Experimental: To determine whether the humanized antibodies retained the ability to specifically bind to human IL-5, apparent dissociation constants of antibody/antigen complexes were measured. This was done by coating enzyme immunoassay plates with mouse anti-human IgG_4-Fc (5 µg per ml, 100 ill per well) in 50 mM bicarbonate buffer, pH 9.5. The plates were then blocked at room temperature for 90 minutes with BLOTTO, washed 3 times, and incubated at 37° C. for 2 hours with one of the humanized antibodies, either purified (100 µl per well with a final concentration of 0.05 µg per ml) or in the form of conditioned medium (100 µl per well).
After the plates were washed 3 times, a dilution series of ^125I-labeled human IL-5 at concentrations between 4,000 pM and 2 pM was applied to the wells in each plate in final volumes of 100 µl. All test wells were run in triplicate. Background binding was determined by using a 1000-fold molar excess of unlablled human IL-5 in control wells. The reactions were allowed to equilibrate at room temperature for 2 hours, at which time the wells were aspirated and washed 5 times with TBST. The wells were then separated and counted in a Pharmacia LKB γ-counter. All nonspecific binding controls were run in duplicate. The values obtained for bound human IL-5 were subjected to Scatchard analysis (using RADLIG software) to obtain dissociation constant (kd) values.

Molecule	molar ratio to biotinylated JES1-39D10 needed to produce the same degree of binding inhibition [1] [molar ratio]	IC50 [2] [nM]	IC50 (pM), inhibition of IL-5-induced CD11b expression on HL-60 cells [3] [pM]	IC50 CMX5/IC50 39D10, inhibition of IL-5-induced CD11b expression on HL-60 cells (fold against 39D10) [3]	MOLAR RATIO CMX5/IL-5, inhibition of IL-5-induced CD11b expression on HL-60 cells (molar ratio antibody:IL-5) [3]	IC50 CMX5/IC50 39D10, inhibition of IL-5-induced CD11b expression on HL-60 cells [3] [fold against 39D10]	MOLAR RATIO CMX5/IL-5, inhibition of IL-5-induced CD11b expression on HL-60 cells [3]	binding result [4]
monoclonal antibody JES1-39D10	1	0.15 to 0.55	166	1	0.83			
B1	~1.4	0.35 to 0.7	467			2.8	2.3 molar ratio antibody:IL-5	
B2								binds
B3								no binding
B4	~1.4	0.5 to 1.1	800			4.8	4 molar ratio antibody:IL-5	
B5	~3.3	1.5 to 3	1470			8.8	7.3 molar ratio antibody:IL-5	
